Results: patent US20200317768A1 (published 2020)

Tests used:
Assay in all cases: SPR (BIACORE), captured antibody, FcgR as analyte
[1] = target: T1, cynomolgus monkey FcγRIIa1 extracellular domain, His-tagged (cynomolgus monkey)
T1 construct: also called cyno FcγRIIa1; cynoFcgRIIa1; not shown: C-terminal His-tag
T1 chain: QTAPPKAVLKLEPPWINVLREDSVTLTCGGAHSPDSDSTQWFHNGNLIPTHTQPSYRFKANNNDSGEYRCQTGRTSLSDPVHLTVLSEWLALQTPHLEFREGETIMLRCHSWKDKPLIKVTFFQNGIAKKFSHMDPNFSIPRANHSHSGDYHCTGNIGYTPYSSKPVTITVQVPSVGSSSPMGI
Description: (§1) The kinetic analysis of interactions between these antibodies and FcγR was carried out using BIACORE® T200 or BIACORE® 4000 (GE Healthcare). HBS-EP+ (GE Healthcare) was used as the running buffer, and the measurement temperature was set to 25° C. A chip produced by immobilizing Protein A. Protein A/G or mouse anti-human IgG kappa light chain (BD Biosciences) onto a Series S Sensor Chip CM4 or CM5 (GE Healthcare) by the amine-coupling method was used. […] After the measurement, the antibody captured on the chip was washed off by allowing reaction with 10 mM glycine-HCl, pH1.5 and 25 mM NaOH so that the chip was regenerated and used repeatedly. The sensorgrams obtained as measurement results were analyzed by the 1:1 Langmuir binding model using the BIACORE® Evaluation Software to calculate the binding rate constant ka (L/mol/s) and dissociation rate constant kd (l/s), and the dissociation constant KD (mol/L) was calculated from these values. […] Regarding such interactions, KD values were calculated using the following 1:1 binding model described in BIACORE® T100 Software Handbook BR1006-48 Edition AE.

[2] = target: T2, cynomolgus monkey FcγRIIa2 extracellular domain, His-tagged (cynomolgus monkey)
T2 construct: also called cyno FcγRIIa2; cynoFcgRIIa2; not shown: C-terminal His-tag
T2 chain: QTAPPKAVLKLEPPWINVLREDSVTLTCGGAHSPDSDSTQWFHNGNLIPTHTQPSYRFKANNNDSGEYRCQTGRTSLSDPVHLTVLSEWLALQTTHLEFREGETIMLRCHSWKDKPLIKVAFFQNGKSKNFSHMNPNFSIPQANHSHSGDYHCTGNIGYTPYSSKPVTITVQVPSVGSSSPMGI
Description: as §1

[3] = target: T3, cynomolgus monkey FcγRIIa3 extracellular domain, His-tagged (cynomolgus monkey)
T3 construct: also called cyno FcγRIIa3; cynoFcgRIIa3; not shown: C-terminal His-tag
T3 chain: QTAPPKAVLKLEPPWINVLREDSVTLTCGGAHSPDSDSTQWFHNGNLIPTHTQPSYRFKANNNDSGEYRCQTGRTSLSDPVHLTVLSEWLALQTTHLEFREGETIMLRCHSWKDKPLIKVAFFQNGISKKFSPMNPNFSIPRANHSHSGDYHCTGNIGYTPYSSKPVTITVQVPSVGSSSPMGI
Description: as §1

[4] = target: T4, cynomolgus monkey FcγRIIb extracellular domain, His-tagged (cynomolgus monkey)
T4 construct: also called cyno FcγRIIb; cynoFcγRIIb; not shown: C-terminal His-tag
T4 chain: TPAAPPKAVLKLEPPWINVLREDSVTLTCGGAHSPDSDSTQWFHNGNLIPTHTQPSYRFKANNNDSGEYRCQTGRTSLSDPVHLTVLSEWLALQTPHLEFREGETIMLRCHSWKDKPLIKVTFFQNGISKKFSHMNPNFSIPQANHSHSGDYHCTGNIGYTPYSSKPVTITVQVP
Description: as §1

[5] = target: T5, cynomolgus monkey FcγRIIIaS extracellular domain, His-tagged (cynomolgus monkey, UniProt Q8SPW2 21-206 at identity 1.00))
T5 construct: also called cyno FcγRIIIaS; cynoFcγRIIIaS; not shown: C-terminal His-tag
T5 chain: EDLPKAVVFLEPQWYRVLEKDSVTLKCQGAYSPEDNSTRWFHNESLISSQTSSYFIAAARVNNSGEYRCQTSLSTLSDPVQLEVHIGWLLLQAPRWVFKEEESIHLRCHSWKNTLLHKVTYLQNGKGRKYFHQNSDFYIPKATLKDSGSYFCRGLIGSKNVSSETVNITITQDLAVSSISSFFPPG
Description: as §1

[6] = target: T6, human FcγRIIaH extracellular domain, His-tagged (human, UniProt P12318 34-217)
T6 construct: also called human FcγRIIa (type H); FcgRIIaH; not shown: C-terminal His-tag
T6 sequence: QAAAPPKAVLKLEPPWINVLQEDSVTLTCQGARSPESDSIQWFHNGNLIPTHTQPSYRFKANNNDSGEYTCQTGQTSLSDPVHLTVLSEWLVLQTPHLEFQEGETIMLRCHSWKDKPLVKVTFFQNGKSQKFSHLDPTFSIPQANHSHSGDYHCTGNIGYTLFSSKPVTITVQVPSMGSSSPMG
Description: as §1

[7] = target: T7, human FcγRIIaR extracellular domain, His-tagged (human, UniProt P12318 34-217)
T7 construct: also called human FcγRIIa (type R); FcgRIIaR; not shown: C-terminal His-tag
T7 chain: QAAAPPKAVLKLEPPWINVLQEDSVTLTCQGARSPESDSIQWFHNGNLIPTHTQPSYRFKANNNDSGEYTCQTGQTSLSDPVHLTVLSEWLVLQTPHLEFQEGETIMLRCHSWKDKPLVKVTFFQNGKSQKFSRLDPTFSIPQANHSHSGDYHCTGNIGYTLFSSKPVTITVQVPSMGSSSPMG
Description: as §1

[8] = target: T8, human FcγRIIb extracellular domain, His-tagged (human, UniProt P31994 43-217)
T8 construct: also called FcgRIIb (human); not shown: C-terminal His-tag
T8 sequence: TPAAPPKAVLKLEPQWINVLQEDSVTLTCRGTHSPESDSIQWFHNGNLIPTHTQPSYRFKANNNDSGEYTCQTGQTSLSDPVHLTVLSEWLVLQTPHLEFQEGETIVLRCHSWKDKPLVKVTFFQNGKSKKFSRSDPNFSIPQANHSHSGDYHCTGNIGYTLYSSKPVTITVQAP
Description: as §1

[9] = target: T9, human FcγRIIIaV extracellular domain, His-tagged (human, UniProt P08637 17-208)
T9 construct: also called FcgRIIIaV; not shown: C-terminal His-tag
Description: as §1

T9 sequence (P08637 17-208 F176V): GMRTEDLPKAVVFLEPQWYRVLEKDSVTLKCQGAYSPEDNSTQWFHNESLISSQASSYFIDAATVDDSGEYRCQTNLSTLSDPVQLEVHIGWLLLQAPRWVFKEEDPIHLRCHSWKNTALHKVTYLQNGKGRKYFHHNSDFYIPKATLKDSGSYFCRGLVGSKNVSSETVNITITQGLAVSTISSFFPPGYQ

| Kd [1] [nM] | Kd [2] [nM] | Kd [3] [nM] | Kd [4] [nM] | Kd [5] [nM] | Kd [6] [nM] | Kd [7] [nM] | Kd [8] [nM] | Kd [9] [nM] | Binder |
| --- | --- | --- | --- | --- | --- | --- | --- | --- | --- |
| 870 | 940 | 1500 | 230 | 1000 | 93 | 74 | 290 | 3700 | M103205H795-MY449/M103202L889-SK1 (antibody, human IgG1, kappa, copies: 2 + 2) heavy: QVTLKESGPVLVKPTETLTLTCTVSGIDLSHDDISWVRQAPGKGLEWVGIISYAGSTYYASWAKGRLTISKDTSKNQVVLTMTNMDPVDTATYYCARGVPAYSHGGDLWGQGTLVTVSSASTKGPSVFPLAPSSKSTSGGTAALGCLVKDYFPEPVTVSWNSGALTSGVHTFPAVLQSSGLYSLSSVVTVPSSSLGTQTYICNVNHKPSNTKVDKKVEPKSCDKTHTCPPCPALELLTGPSVFLFPPKPKDTLMISRTPEVTCVVVDVSDEDPEVKFNWYVDGVEVHNAKTKPREEQYNSTYRVVSVLTVLHQDWLNGKEYKCKVSNKALPKPIEKTISKAKGQPREPQVYTLPPSREEMTKNQVSLTCLVKGFYPSDIAVEWESNGQPENNYKTTPPVLDSDGSFFLYSKLTVDKSRWQQGNVFSCSVMHEALHNHYTQKSLSLSP light: DIVMTQSPATLSLSPGERATLSCTSSQSVYHANWLSWFQQKPGQPPKLLIYWASTLAYGVPSRFSGSGSGTDFTLTISSLQPEDAATYYCAGGYGGGRYAFGQGTKVEIKRTVAAPSVFIFPPSDEQLKSGTASVVCLLNNFYPREAKVQWKVDNALQSGNSQESVTEQDSKDSTYSLSSTLTLSKADYEKHKVYACEVTHQGLSSPVTKSFNRGEC |
| 3400 | 3100 | 6500 | 920 | 2800 | 360 | 620 | 2900 | 6100 | M103205H795-MY452/M103202L889-SK1 (antibody, human IgG1, kappa, copies: 2 + 2) heavy: QVTLKESGPVLVKPTETLTLTCTVSGIDLSHDDISWVRQAPGKGLEWVGIISYAGSTYYASWAKGRLTISKDTSKNQVVLTMTNMDPVDTATYYCARGVPAYSHGGDLWGQGTLVTVSSASTKGPSVFPLAPSSKSTSGGTAALGCLVKDYFPEPVTVSWNSGALTSGVHTFPAVLQSSGLYSLSSVVTVPSSSLGTQTYICNVNHKPSNTKVDKKVEPKSCDKTHTCPPCPAQELLTGPSVFLFPPKPKDTLMISRTPEVTCVVVDVSDEDPEVKFNWYVDGVEVHNAKTKPREEQYNSTYRVVSVLTVLHQDWLNGKEYKCKVSNKALPKPIEKTISKAKGQPREPQVYTLPPSREEMTKNQVSLTCLVKGFYPSDIAVEWESNGQPENNYKTTPPVLDSDGSFFLYSKLTVDKSRWQQGNVFSCSVMHEALHNHYTQKSLSLSP light: DIVMTQSPATLSLSPGERATLSCTSSQSVYHANWLSWFQQKPGQPPKLLIYWASTLAYGVPSRFSGSGSGTDFTLTISSLQPEDAATYYCAGGYGGGRYAFGQGTKVEIKRTVAAPSVFIFPPSDEQLKSGTASVVCLLNNFYPREAKVQWKVDNALQSGNSQESVTEQDSKDSTYSLSSTLTLSKADYEKHKVYACEVTHQGLSSPVTKSFNRGEC |
| 1300 | 1100 | 2200 | 280 | 1800 | 130 | 120 | 470 | 4000 | M103205H795-MY450/M103202L889-SK1 (antibody, human IgG1, kappa, copies: 2 + 2) heavy: QVTLKESGPVLVKPTETLTLTCTVSGIDLSHDDISWVRQAPGKGLEWVGIISYAGSTYYASWAKGRLTISKDTSKNQVVLTMTNMDPVDTATYYCARGVPAYSHGGDLWGQGTLVTVSSASTKGPSVFPLAPSSKSTSGGTAALGCLVKDYFPEPVTVSWNSGALTSGVHTFPAVLQSSGLYSLSSVVTVPSSSLGTQTYICNVNHKPSNTKVDKKVEPKSCDKTHTCPPCPAMELLTGPSVFLFPPKPKDTLMISRTPEVTCVVVDVSDEDPEVKFNWYVDGVEVHNAKTKPREEQYNSTYRVVSVLTVLHQDWLNGKEYKCKVSNKALPKPIEKTISKAKGQPREPQVYTLPPSREEMTKNQVSLTCLVKGFYPSDIAVEWESNGQPENNYKTTPPVLDSDGSFFLYSKLTVDKSRWQQGNVFSCSVMHEALHNHYTQKSLSLSP light: DIVMTQSPATLSLSPGERATLSCTSSQSVYHANWLSWFQQKPGQPPKLLIYWASTLAYGVPSRFSGSGSGTDFTLTISSLQPEDAATYYCAGGYGGGRYAFGQGTKVEIKRTVAAPSVFIFPPSDEQLKSGTASVVCLLNNFYPREAKVQWKVDNALQSGNSQESVTEQDSKDSTYSLSSTLTLSKADYEKHKVYACEVTHQGLSSPVTKSFNRGEC |
| 3600 | 4200 | 6700 | 1000 | 2700 | 410 | 840 | 3000 | 7100 | M103205H795-MY451/M103202L889-SK1 (antibody, human IgG1, kappa, copies: 2 + 2) heavy: QVTLKESGPVLVKPTETLTLTCTVSGIDLSHDDISWVRQAPGKGLEWVGIISYAGSTYYASWAKGRLTISKDTSKNQVVLTMTNMDPVDTATYYCARGVPAYSHGGDLWGQGTLVTVSSASTKGPSVFPLAPSSKSTSGGTAALGCLVKDYFPEPVTVSWNSGALTSGVHTFPAVLQSSGLYSLSSVVTVPSSSLGTQTYICNVNHKPSNTKVDKKVEPKSCDKTHTCPPCPANELLTGPSVFLFPPKPKDTLMISRTPEVTCVVVDVSDEDPEVKFNWYVDGVEVHNAKTKPREEQYNSTYRVVSVLTVLHQDWLNGKEYKCKVSNKALPKPIEKTISKAKGQPREPQVYTLPPSREEMTKNQVSLTCLVKGFYPSDIAVEWESNGQPENNYKTTPPVLDSDGSFFLYSKLTVDKSRWQQGNVFSCSVMHEALHNHYTQKSLSLSP light: DIVMTQSPATLSLSPGERATLSCTSSQSVYHANWLSWFQQKPGQPPKLLIYWASTLAYGVPSRFSGSGSGTDFTLTISSLQPEDAATYYCAGGYGGGRYAFGQGTKVEIKRTVAAPSVFIFPPSDEQLKSGTASVVCLLNNFYPREAKVQWKVDNALQSGNSQESVTEQDSKDSTYSLSSTLTLSKADYEKHKVYACEVTHQGLSSPVTKSFNRGEC |
